Experimental findings from patent publication US7070974B1, “Metalloproteases of the neprilysin family” (Universite de Montreal, priority 1999, dated 2006) are described below.

One may read the IC50 as the concentration that gives 50% inhibition. The low end stands for higher potency, the high end for lower potency.

In series [1] the test system is NL1 secretion (subtilisin-like convertase processing) in HEK 293 cells. Nature of the series: Immunoblot of culture media of HEK 293 cells co-expressing NL1 and α1-PDX. The following applies: transient co-transfection, increasing amounts of α1-PDX plasmid; related to the amount. The format is cell-based, Human. As for the experimental part:
Human Embryonic Kidney (HEK 293) cells were maintained in DMEM medium containing 10% fetal bovine serum (FBS), and supplemented with penicillin at 60 μg/ml, streptomycin at 100 μg/ml and fongizone at 0.25 μg/ml. Transfections of cells with appropriate plasmids were performed by the calcium/phosphate-DNA co-precipitation method (Chang 1987).
For immunoblot analysis, cells were incubated for 16 h in synthetic DMEM medium containing 2 mM sodium butyrate. Cellular proteins were solubilized as previously described (Dion 1995). Secreted proteins recovered in culture media were concentrated approximately 10 fold by ultrafiltration. Immunoblot analysis were performed using the NEN Renaissance kit with the polyclonal antibody specific to NL1 or the α1-antitrypsin inhibitor antibody (Calbiochem; LaJolla, Calif.) followed by the appropriate horseradish peroxidase-conjugated IgG (Vector Laboratories).
To determine whether a member of the mammalian subtilisine-like convertase family is responsible for NL1 presence in the culture medium of transfected cells, we co-transfected transiently HEK 293 cells with a constant amount of plasmid pCDNA3/RSV/NL1 and increasing amounts of plasmid pCDNA3/CMV/PDX (Benjannet 1997). This latter vector promotes the expression of the α1-antitrypsin Portland variant, α1-PDX, a known inhibitor of subtilisin-like convertases (Anderson 1993).
On the technique in general: In western blotting, separated proteins are transferred to a membrane and probed.

For the next series, the target named is T1, sNEP (Oryctolagus cuniculus, UniProt P08049).
T1 construct: Fusion of a cleavable signal peptide to the ectodomain of neutral endopeptidase; cleavable signal peptide of proopiomelanocortin (replaces cytosolic and transmembrane domains) (N, cleaved yes); made in house; host or cells: LLC-PK1 cells transfected with pRcCMV-sNEP; concentrated culture medium
T1 sequence (P08049 52-750 limits assumed): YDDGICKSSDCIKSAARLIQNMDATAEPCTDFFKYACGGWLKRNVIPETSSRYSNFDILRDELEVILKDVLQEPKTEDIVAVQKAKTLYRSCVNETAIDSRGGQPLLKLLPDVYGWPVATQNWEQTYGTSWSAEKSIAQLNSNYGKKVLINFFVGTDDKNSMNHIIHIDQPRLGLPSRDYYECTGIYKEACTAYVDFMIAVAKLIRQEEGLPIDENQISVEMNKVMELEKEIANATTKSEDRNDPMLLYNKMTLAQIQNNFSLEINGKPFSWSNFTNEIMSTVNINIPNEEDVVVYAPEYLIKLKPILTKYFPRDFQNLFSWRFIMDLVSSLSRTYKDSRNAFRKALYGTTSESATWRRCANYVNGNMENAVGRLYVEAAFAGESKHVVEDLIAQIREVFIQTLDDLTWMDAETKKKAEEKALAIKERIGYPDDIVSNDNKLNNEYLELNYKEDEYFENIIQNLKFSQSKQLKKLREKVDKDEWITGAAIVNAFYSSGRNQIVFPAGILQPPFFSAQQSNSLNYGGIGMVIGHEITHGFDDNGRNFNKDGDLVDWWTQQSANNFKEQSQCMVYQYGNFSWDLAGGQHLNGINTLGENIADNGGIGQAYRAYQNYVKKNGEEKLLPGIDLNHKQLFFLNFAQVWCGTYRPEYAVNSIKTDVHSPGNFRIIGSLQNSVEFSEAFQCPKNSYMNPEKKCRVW
Nature of the series: HPLC analysis of the hydrolysis of Leu-enkephalin by sNEP. The format is biochemical. As to conditions: phosphoramidon 1 μM, Leu5-enkephalin, RP-HPLC. The text has this:
(§1) Hydrolysis products were separated by reversed-phase HPLC as described previously.

Series [2] deals with T2, NL1 (Mus musculus, UniProt Q9JLI3).
T2 sequence (Q9JLI3 63-765 limits assumed): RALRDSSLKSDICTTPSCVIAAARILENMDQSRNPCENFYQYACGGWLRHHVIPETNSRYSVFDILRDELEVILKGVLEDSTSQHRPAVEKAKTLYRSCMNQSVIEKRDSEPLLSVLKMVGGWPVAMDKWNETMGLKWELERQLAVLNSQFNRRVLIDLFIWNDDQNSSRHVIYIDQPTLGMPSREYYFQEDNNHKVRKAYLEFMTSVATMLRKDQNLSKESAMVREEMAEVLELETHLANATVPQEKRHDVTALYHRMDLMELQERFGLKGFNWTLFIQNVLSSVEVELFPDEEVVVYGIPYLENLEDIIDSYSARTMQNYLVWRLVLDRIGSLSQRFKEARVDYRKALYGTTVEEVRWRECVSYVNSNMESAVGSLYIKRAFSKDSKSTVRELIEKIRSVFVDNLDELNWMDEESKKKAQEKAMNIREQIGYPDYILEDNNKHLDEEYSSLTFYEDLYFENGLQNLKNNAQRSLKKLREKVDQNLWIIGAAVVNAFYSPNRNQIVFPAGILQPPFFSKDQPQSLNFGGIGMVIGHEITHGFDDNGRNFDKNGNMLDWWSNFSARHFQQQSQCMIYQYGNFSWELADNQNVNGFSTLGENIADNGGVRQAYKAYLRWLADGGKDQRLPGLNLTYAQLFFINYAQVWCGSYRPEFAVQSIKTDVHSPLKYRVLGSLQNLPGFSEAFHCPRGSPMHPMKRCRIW
Nature of the series: NL-1 enzymatic activity assay with (Tyrosyl-[3,5-3H])(D-Ala2)-Leu5-enkephalin as substrate. The series is classed as biochemical. Details: The soluble form of NL-1 was assayed for activity; made in house; host or cells: CHO cells (section 1, pcDNA3-RSV) and HEK 293 cells (section 2, pCDNA3/RSV). As to conditions: inhibition of NL-1 degradation of the enkephalin substrate. How it is done:
Extracts of cellular proteins and culture media were assayed for enzymatic activity. Two tests were performed. The first used [^3H]-Tyr-(D)Ala2-Leu-enkephalin as substrate and was performed according to Lemay et al., (1989). The second used bradykinin as substrate and was performed as described by Raut et al. (1999).
NL1 activity was monitored and compared to sNEP activity using (Tyrosyl-[3,5-^3H])(D-Ala2)-Leu5-enkephalin (50 Ci/mmol) (Research Products International Inc.), as already described (Dion 1995; Devault 1988). Km values were determined by the isotope-dilution method.

In series [3] the target is T3, sNEP (engineered soluble form of NEP) (Oryctolagus cuniculus, UniProt P08049).
T3 construct: Fusion of a cleavable signal peptide to the ectodomain of neutral endopeptidase; cleavable signal peptide of proopiomelanocortin (replaces cytosolic and transmembrane domains) (N, cleaved yes); made in house; host or cells: LLC-PK1 cells transfected with pRcCMV-sNEP; concentrated culture medium
T3 sequence (P08049 52-750 limits assumed): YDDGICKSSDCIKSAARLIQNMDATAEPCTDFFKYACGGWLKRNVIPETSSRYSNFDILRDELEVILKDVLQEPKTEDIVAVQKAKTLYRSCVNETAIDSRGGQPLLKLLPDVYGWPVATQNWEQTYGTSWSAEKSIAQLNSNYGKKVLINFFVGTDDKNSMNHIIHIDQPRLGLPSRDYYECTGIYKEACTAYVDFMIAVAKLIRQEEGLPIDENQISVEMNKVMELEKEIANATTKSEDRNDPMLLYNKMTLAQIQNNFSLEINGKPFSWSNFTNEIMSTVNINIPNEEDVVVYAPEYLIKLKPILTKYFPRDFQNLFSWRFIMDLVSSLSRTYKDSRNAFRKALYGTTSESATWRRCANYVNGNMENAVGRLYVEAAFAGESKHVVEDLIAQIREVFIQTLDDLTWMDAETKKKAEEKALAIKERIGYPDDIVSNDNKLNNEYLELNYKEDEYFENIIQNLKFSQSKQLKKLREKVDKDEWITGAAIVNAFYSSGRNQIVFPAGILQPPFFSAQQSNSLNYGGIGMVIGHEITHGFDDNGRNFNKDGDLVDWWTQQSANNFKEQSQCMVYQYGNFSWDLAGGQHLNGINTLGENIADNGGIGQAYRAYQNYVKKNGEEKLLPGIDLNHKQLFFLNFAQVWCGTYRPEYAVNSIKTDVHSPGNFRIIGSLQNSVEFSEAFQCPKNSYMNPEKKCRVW
Nature of the series: sNEP enzymatic activity assay with (Tyrosyl-[3,5-3H])(D-Ala2)-Leu5-enkephalin as substrate. The format is biochemical. As to conditions: inhibition of sNEP/NEP activity.

Series [4] deals with T2, NL1. Nature of the series: HPLC analysis of the hydrolysis of Leu-enkephalin by NL1. Further details: The soluble form of NL-1 was assayed for activity; made in house; host or cells: HEK 293 cells (section 2, pCDNA3/RSV). The format is biochemical. The following applies: phosphoramidon 1 μM; Leu5-enkephalin; NL1 from medium of HEK/NL1 cells; RP-HPLC.
Description: as §1

Series [5] concerns T4, Leu5-enkephalin.
T4 sequence: YGGFL

Series [6] deals with T5, (Tyrosyl-[3,5-3H])(D-Ala2)-Leu5-enkephalin.
T5 sequence: YAGFL

The target of series [7] is T6, (Tyrosyl-[3,5-3H])(D-Ala2)-Leu5-enkephalin.
T6 chain: YAGFL

The target of series [8] is T7, Leu5-enkephalin.
T7 chain: YGGFL

Like-named read-outs stand apart in the source and are kept apart here.

bradykinin, P01042, sequence (P01042 whole entry, looked up): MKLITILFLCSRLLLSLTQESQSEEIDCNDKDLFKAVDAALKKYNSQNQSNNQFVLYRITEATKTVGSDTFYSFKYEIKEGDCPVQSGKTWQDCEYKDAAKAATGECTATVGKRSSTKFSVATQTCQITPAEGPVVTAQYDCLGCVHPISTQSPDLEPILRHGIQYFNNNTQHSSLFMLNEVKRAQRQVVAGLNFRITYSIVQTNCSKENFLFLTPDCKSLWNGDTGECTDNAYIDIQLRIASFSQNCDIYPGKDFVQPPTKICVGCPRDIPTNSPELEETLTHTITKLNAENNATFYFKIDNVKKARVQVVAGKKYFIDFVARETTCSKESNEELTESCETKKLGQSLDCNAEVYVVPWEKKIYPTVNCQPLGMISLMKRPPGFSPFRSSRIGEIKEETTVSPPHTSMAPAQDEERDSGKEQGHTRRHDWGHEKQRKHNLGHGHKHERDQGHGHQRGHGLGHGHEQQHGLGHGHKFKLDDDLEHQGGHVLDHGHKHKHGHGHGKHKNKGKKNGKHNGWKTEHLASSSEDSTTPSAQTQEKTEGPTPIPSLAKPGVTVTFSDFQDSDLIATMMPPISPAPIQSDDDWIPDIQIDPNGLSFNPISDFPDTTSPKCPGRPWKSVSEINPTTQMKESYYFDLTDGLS

Turning to “α1-PDX: α1-antitrypsin Portland variant, a known inhibitor of subtilisin-like convertases, expressed from plasmid pCDNA3/CMV/PDX”, in series [1], the “effect on NL1 secretion” value is given as “strongly inhibited”.

Take `CC(C)C[C@H](NP(=O)(O)O[C@@H]1O[C@@H](C)[C@H](O)[C@@H](O)[C@H]1O)C(=O)N[C@@H](Cc1c[nH]c2ccccc12)C(=O)O` [phosphoramidon]: the “inhibition of enkephalin-degrading activity” value against sNEP and on NL1 [4] was “completely inhibited” each time. The figures for the IC50 (against NL1 [2]; in series [3]) were 0.9 nM and 0.5 nM, respectively.

Turning to `O=C(O)CNC(=O)C(CS)Cc1ccccc1` (centres unmarked) [thiorphan], the 50% inhibitory concentration (IC50) on NL1 [2] stood at 47 nM.

For the molecule engineered soluble form of NEP (sNEP), the “cleavage products by RP-HPLC” value in the series on Leu5-enkephalin [5] was “both enzymes cleaved the substrate at the Gly3-Phe4 peptide bond”. The Km entry in series [6] was “Km values of 18 µM and 73 µM, respectively”.

B1: soluble form of NL-3 (NL-3 ectodomain secreted by means of the NL-1 amino-terminal domain) (protein)
chain: KYLGPVAAGGGACPEGCPERKAFARAARFLAANLDASIDPCQDFYSFACGGWLRRHAIPDDKLTYGTIAAIGEQNEERLRRLLARPGGGPGGAAQRKVRAFFRSCLDMREIERLGPRPMLEVIEDCGGWDLGGAEERPGVAARWDLNRLLYKAQGVYSAAALFSLTVSLDDRNSSRYVIRIDQDGLTLPERTLYLAQDEDSEKVLAAYRVFMERVLSLLGADAVEQKAQEILQVEQQLANITVSEYDDLRRDVSSMYNKVTLGQLQKITPHLRWKWLLDQIFQEDFSEEEEVVLLATDYMQQVSQLIRSTPHRVLHNYLVWRVVVVLSEHLSPPFREALHELAQEMEGSDKPQELARVCLGQANRHFGMALGALFVHEHFSAASKAKVQQLVEDIKYILGQRLEELDWMDAETRAAARAKLQYMMVMVGYPDFLLKPDAVDKEYEFEVHEKTYFKNILNSIRFSIQLSVKKIRQEVDKSTWLLPPQALNAYYLPNKNQMVFPAGILQPTLYDPDFPQSLNYGGIGTIIGHELTHGYDDWGGQYDRSGNLLHWWTEASYSRFLRKAECIVRLYDNFTVYNQRVNGKHTLGENIADMGGLKLAYHAYQKWVREHGPEHPLPRLKYTHDQLFFIAFAQNWCIKRRSQSIYLQVLTDKHAPEHYRVLGSVSQFEEFGRVLHCPKVSPMNPAHKCSVW
Turning to B1, the enzymatic activity entry in series [7] was “No activity was found”.

B2: soluble NL-1 (secreted form of mouse NL-1 recovered from culture medium) (protein)
chain: GKQLPLLTSLLHFSWDERTVVKRALRDSSLKSDICTTPSCVIAAARILENMDQSRNPCENFYQYACGGWLRHHVIPETNSRYSVFDILRDELEVILKGVLEDSTSQHRPAVEKAKTLYRSCMNQSVIEKRDSEPLLSVLKMVGGWPVAMDKWNETMGLKWELERQLAVLNSQFNRRVLIDLFIWNDDQNSSRHVIYIDQPTLGMPSREYYFQEDNNHKVRKAYLEFMTSVATMLRKDQNLSKESAMVREEMAEVLELETHLANATVPQEKRHDVTALYHRMDLMELQERFGLKGFNWTLFIQNVLSSVEVELFPDEEVVVYGIPYLENLEDIIDSYSARTMQNYLVWRLVLDRIGSLSQRFKEARVDYRKALYGTTVEEVRWRECVSYVNSNMESAVGSLYIKRAFSKDSKSTVRELIEKIRSVFVDNLDELNWMDEESKKKAQEKAMNIREQIGYPDYILEDNNKHLDEEYSSLTFYEDLYFENGLQNLKNNAQRSLKKLREKVDQNLWIIGAAVVNAFYSPNRNQIVFPAGILQPPFFSKDQPQSLNFGGIGMVIGHEITHGFDDNGRNFDKNGNMLDWWSNFSARHFQQQSQCMIYQYGNFSWELADNQNVNGFSTLGENIADNGGVRQAYKAYLRWLADGGKDQRLPGLNLTYAQLFFINYAQVWCGSYRPEFAVQSIKTDVHSPLKYRVLGSLQNLPGFSEAFHCPRGSPMHPMKRCRIW
B2: in the series with Leu5-enkephalin [8], the “cleavage products by RP-HPLC” value was “both enzymes cleaved the substrate at the Gly3-Phe4 peptide bond”. In series [7], the Km entry was “Km values of 18 µM and 73 µM, respectively”; the “Km (degradation of the enkephalin substrate)” value was “Km=18±10 µM”; the “enzymatic activity in culture medium” value is “Activity was detected in the culture medium of HEK/NL1 cells but not in that of HEK 293 cells”. Moreover, the substrate degradation entry with bradykinin, P01042 is given as “Bradykinin is also a substrate for NL-1 (not shown)”.
